B1: Ac[A26,27,L28,31]NPY24-36 (peptide)
peptide: Ac-LRAALNLLTRQRY-NH2
B2: Ac[A24,26,27,30,31,L28]NPY24-36 (peptide)
peptide: Ac-ARAALNAATRQRY-NH2
B3: AcNPY24-36 (peptide, UniProt P01303 52-64, looked up)
peptide: Ac-LRHYINLITRQRY-NH2
B4: Neuropeptide Y (ligand)
peptide: not shown
B5: Ac[L28,L31]NPY24-36 (peptide)
peptide: Ac-LRHYLNLLTRQRY-NH2
B6: Ac[L28,A31]NPY24-36 (peptide)
peptide: Ac-LRHYLNLATRQRY-NH2
B7: Ac[A27,L28,L31]NPY24-36 (peptide)
peptide: Ac-LRHALNLLTRQRY-NH2
B8: Ac[L28,A30,L31]NPY24-36 (peptide)
peptide: Ac-LRHYLNALTRQRY-NH2
B9: Ac[A28,L31]NPY24-36 (peptide)
peptide: Ac-LRHYANLLTRQRY-NH2
B10: Ac[A24,A27,L28,L31]NPY24-36 (peptide)
peptide: Ac-ARHALNLLTRQRY-NH2
notes: also called Ac[Ala24, Ala27, Leu28, Leu31]NPY(24-36)
B11: Ac[A26,L28,L31]NPY24-36 (peptide)
peptide: Ac-LRAYLNLLTRQRY-NH2
B12: Ac[L28,A29,L31]NPY24-36 (peptide)
peptide: Ac-LRHYLALLTRQRY-NH2
B13: Ac[A25,L28,L31]NPY24-36 (peptide)
peptide: Ac-LAHYLNLLTRQRY-NH2
B14: Ac[A25,R28,L31]NPY24-36 (peptide)
peptide: Ac-LAHYRNLLTRQRY-NH2
B15: Ac[A24,L28,L31]NPY24-36 (peptide)
peptide: Ac-ARHYLNLLTRQRY-NH2
B16: Ac[L28,L31,A32]NPY24-36 (peptide)
peptide: Ac-LRHYLNLLARQRY-NH2

What was measured:
[1] = target: Y2-like receptors in anaesthetised rats (rat); assay: cell-based or functional assay
[2] = target: Y1 receptors in anaesthetised rats (rat); assay: cell-based or functional assay
[3] = target: T1, human neuropeptide Y Y2 receptor on SMS-MSN cells (human, UniProt P49146 1-381); assay: competition with 30 pM [125I]NPY on SMS-MSN cells (human Y2), filtration
T1 construct: whole, on cells; also called NPY Y2 receptor; SMS-MSN (Y2)
T1 sequence (looked up): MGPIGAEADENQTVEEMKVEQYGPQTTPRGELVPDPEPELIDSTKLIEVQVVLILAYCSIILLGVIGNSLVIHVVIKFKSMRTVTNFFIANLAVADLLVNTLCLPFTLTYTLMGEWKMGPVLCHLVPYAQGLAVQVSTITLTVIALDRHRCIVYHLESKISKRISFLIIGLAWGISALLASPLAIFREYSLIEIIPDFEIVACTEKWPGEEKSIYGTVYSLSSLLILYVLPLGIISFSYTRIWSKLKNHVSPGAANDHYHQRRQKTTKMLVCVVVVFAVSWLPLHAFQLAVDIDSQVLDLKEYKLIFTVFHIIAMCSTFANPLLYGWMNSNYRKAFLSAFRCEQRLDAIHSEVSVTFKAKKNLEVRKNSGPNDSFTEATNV

[4] = target: T2, human neuropeptide Y Y1 receptor on SK-N-MC cells (human, UniProt P25929 1-384); assay: competition with 30 pM [125I]NPY on SK-N-MC cells (human Y1), filtration
T2 construct: whole, on cells; also called NPY Y1 receptor; SK-N-MC (Y1)
T2 sequence (looked up): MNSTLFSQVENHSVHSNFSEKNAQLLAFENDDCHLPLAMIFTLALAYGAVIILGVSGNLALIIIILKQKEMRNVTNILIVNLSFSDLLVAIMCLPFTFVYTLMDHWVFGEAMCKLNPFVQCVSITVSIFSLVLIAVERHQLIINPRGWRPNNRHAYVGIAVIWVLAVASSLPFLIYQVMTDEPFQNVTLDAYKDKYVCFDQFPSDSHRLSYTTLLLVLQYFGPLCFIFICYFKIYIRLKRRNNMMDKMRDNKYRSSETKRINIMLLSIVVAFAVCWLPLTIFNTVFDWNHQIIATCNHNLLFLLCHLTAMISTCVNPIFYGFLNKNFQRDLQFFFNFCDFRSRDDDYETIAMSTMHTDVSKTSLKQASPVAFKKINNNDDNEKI

Row | Binder | EC50 of the change in pulse interval (PI %), vagal stimulation in anaesthetised rats [1] | Increase in BP (rel to NPY), anaesthetised rats [2] | IC50 [3] | IC50 [4]
1 | B1 | 1 nmol | 0 relative to NPY |  | 
2 | B2 | 0.56 nmol | 0 relative to NPY | 3.16 nM | 
3 | B3 |  | 0 relative to NPY |  | 
4 | B4 |  | 1 relative to NPY |  | 
5 | B5 | 3.16 nmol | 0 relative to NPY |  | 
6 | B6 | 0.78 nmol | 0 relative to NPY | 0.06 nM | 
7 | B7 | 0.52 nmol | 0 relative to NPY | 0.13 nM | 
8 | B8 | 0.39 nmol | 0 relative to NPY | 6.31 nM | 
9 | B9 | 2.75 nmol | 0 relative to NPY | 12.6 nM | 
10 | B10 | 0.89 nmol | 0 relative to NPY | 0.03 nM | 
11 | B11 | 1.26 nmol | 0 relative to NPY | 63.1 nM | 
12 | B12 | 1.48 nmol | 0 relative to NPY | 0.05 nM | 
13 | B13 | 1.58 nmol | 0 relative to NPY | 2 nM | 
14 | B14 | 1.95 nmol | 0 relative to NPY | 0.1 nM | 692 nM
15 | B15 | 0.46 nmol | 0 relative to NPY | 19.2 nM | 
16 | B16 | 6.46 nmol | 0 relative to NPY | 2.51 nM | 

— patent US6696409 (PRINCE OF WALES MEDICAL RESEARCH INSTITUTE LIMITED POWMR, dated 2004)
